Data published in article doi:10.1101/2025.11.19.685371.

Molecular target: pre-formed Aβ oligomers (Aβ42) (UniProt P05067)
Assay: fluorescence correlation spectroscopy

“pre-formed Aβ oligomers (Aβ42) (from UniProt P05067 672-713) (complex)” showed a fraction of fluorescently labeled Aβ in oligomers of 59%.
